Measured values taken from US20250368742A1.
Read-outs that look alike come from different tables or passages of the source.

Legend:
[1] = biological target: shed MICA002 polypeptide (human) (UniProt Q29983); assay: capture ELISA (anti-hFc / antibody / shed antigen / biotin-6D4)
[2] = biological target: shed MICA004 polypeptide (human) (UniProt Q29983); assay: as above
[3] = biological target: shed MICA008 polypeptide (human) (UniProt Q29983); assay: as above
[4] = biological target: shed MICB005 polypeptide (human) (UniProt Q29980); assay: as above
[5] = biological target: shed MICA002 polypeptide (human) (UniProt Q29983); assay: as above; remark: listed apart in the source
[6] = biological target: shed MICA004 polypeptide (human) (UniProt Q29983); assay: as above; remark: listed apart in the source
[7] = biological target: shed MICA008 polypeptide (human) (UniProt Q29983); assay: as above; remark: listed apart in the source
[8] = biological target: shed MICB005 polypeptide (human) (UniProt Q29980); assay: as above; remark: listed apart in the source
[9] = biological target: shed MICA002 polypeptide (human) (UniProt Q29983); assay: as above; remark: listed apart in the source
[10] = biological target: shed MICA004 polypeptide (human) (UniProt Q29983); assay: as above; remark: listed apart in the source
[11] = biological target: shed MICA008 polypeptide (human) (UniProt Q29983); assay: as above; remark: listed apart in the source
[12] = biological target: shed MICB005 polypeptide (human) (UniProt Q29980); assay: as above; remark: listed apart in the source
[13] = biological target: shed MICA002 polypeptide (human) (UniProt Q29983); assay: as above; remark: listed apart in the source
[14] = biological target: shed MICA004 polypeptide (human) (UniProt Q29983); assay: as above; remark: listed apart in the source
[15] = biological target: shed MICA008 polypeptide (human) (UniProt Q29983); assay: as above; remark: listed apart in the source
[16] = biological target: shed MICB005 polypeptide (human) (UniProt Q29980); assay: as above; remark: listed apart in the source
[17] = biological target: shed MICA002 polypeptide (human) (UniProt Q29983); assay: ELISA: antibody titrated on anti-hFc plate, shed MICA002 captured, detection NKG2D-His + anti-His-HRP
[18] = biological target: shed MICA004 polypeptide (human) (UniProt Q29983); assay: ELISA: antibody titrated on anti-hFc plate, shed MICA004 captured, detection NKG2D-His + anti-His-HRP

Row | Binder | EC50 [1] [µg/mL] | Max OD450 [1] | EC50 [2] [µg/mL] | Max OD450 [2] | EC50 [3] [µg/mL] | Max OD450 [3] | EC50 [4] [µg/mL] | Max OD450 [4] | EC50 [5] [µg/mL] | Max OD450 [5] | EC50 [6] [µg/mL] | Max OD450 [6] | EC50 [7] [µg/mL] | Max OD450 [7] | EC50 [17] [µg/mL] | EC50 [18] [µg/mL] | further results
1 | #31 (antibody, V domains shown) VH: EVQLQQSGPELVKPGASVKVSCKASGYAFTKYNIYWVKQSHGKSLEWIGYIDPYNGGTVQNQKFKGKATLTVDKSSSTAYMHLNSLTSEDSAVYYCATTDGYSLFTYWGQGTLVTVSS VL: DIQMTQTTSSLSASLGDRVTISCRASQDIGNYLNWYQQKPDGTVKLLIYYTSRLHSGVPSRFSGSGSGTDYSLTISNLEQEDIATYFCQQGNTLPFTFGSGTKLEIK | 0.13 | 3.16 | 0.2 | 1.72 | 0.26 | 0.19 | 0.72 | 1.37 | – | – | – | – | – | – | – | – | –
2 | #36 (antibody, V domains shown) VH: QVQLQQSGPELVKPGASVKVSCKASGYAFTKYNIYWVKQSHGKSLEWIGYIDPYNGGTVYNQKFKGKATLTVDKSSSTAYMHLNSLTSEDSAVYYCATTDGYSLFTYWGQGTLVTVSA VL: DIQMTQTTSSLSASLGDRVTISCRASQDISNYLNWYQQKPDGTVKLLIYYTSRLHSGVPSRFSGSGSGTDYSLTISNLEQEDIATYFCQQGNTLPFTFGSGTKLEIK | 0.32 | 3 | 0.47 | 1.31 | 0.38 | 0.16 | 0.84 | 0.68 | – | – | – | – | – | – | – | – | –
3 | #34 (antibody, V domains shown) VH: QVQLKQSGPELVKPGASVKVSCKASGYAFTKYNIYWVKQSHGKSLEWIGYIDPYNGGTVQNQKFKGKATLTVDKSSSTAYMHLNSLTSEDSAVYYCATTDGYSLFTYWGQGTLVTVSS VL: DIVLTQSPTTMAASPGEKITITCSASSSISSNYLHWYQQKPGFSPKLLIYRTSNLASGVPARFSGSGSGTSYSLTIGTMEAEDVATYYCQQGSSIPFTFGSGTKLEIK | 0.34 | 2.75 | 0.46 | 1.23 | 0.3 | 0.12 | 0.56 | 0.17 | – | – | – | – | – | – | – | – | –
4 | #40 (antibody, V domains shown) VH: QVQLQQSGPELVKPGASVKVSCKASGYAFTKYNIYWVKQSHGKSLEWIGYIDPYNGGTVYNQKFKGKATLTVDKSSSTAYMHLNSLTSEDSAVYYCATTDGYSLFTYWGQGTLVTVSA VL: DIQMTQTTSSLSASLGDRVTITCSAGQGINNYLNWYQQKPDGTVKLLIFYTSSLQSGVPSRFSGSGSGADYSLTISNLEPEDIATYYCQQYSKLPLTFGAGTKLELK | 0.31 | 2.89 | 0.38 | 1.22 | 0.44 | 0.13 | 0.73 | 0.17 | – | – | – | – | – | – | – | – | –
5 | 6E1.1.12 (antibody, human IgG1, kappa, V domains shown) VH: QGQMQQSGAELVKPGASVKLSCKTSGFTFSDNYISWLKQKPGQSLEWIAWIYAGTGGSSYNQKFRDKAQLTVDTSSRTAYMQLSSLTTEDSAIYYCARHDYYGTSGAWFAYWGRGTLVTVSA VL: DVLMTQTPLSLPVSLGDQASISCRSSQHIVHSNENTYLEWYLQKPGQSPKLLIYKVSNRFSGVPDRFSGSGSGTDFTLKISRVEAEDLGVYYCFQGSHVPWTFGGGTKVEIKR | 0.22 | 3.35 | 0.42 | 1.13 | 0.22 | 0.15 | 0.41 | 2.42 | – | – | – | – | – | – | – | – | –
6 | 1D5 (antibody, human IgG1, kappa, V domains shown) VH: EIQLQQSGPELVKPGASVKVSCKASGYAFTSQNIYWVKQSHGKSLEWIGYIEPYNVVPMYNPKFKGKATLTVDKSSSSAYIHLNSLTSEDSAIYYCARSGSSNFDYWGQGTTLTVSS VL: EIILTQSPTTMAASPGEKITITCSASSSISSHYLHWYQQKSGFSPKLLIYRTSNLASGVPARFSGSGSGTSYSLTIGTMEAEDVATYYCQQGSSLPLTFGAGTKVEIKR | 0.02 | 3.42 | 0.02 | 2.76 | 0.03 | 0.41 | 0.02 | 2.81 | 0.019 | 1.93 | 0.023 | 2.01 | 0.024 | 1.26 | 0.071 | 0.056 | EC50 [8]: 0.026 µg/mL; Max OD450 [8]: 1.43; EC50 [9]: 0.032 µg/mL; Max OD450 [9]: 1.86; EC50 [10]: 0.018 µg/mL; Max OD450 [10]: 1.94; EC50 [11]: 0.035 µg/mL; Max OD450 [11]: 1.39; EC50 [12]: 0.035 µg/mL; Max OD450 [12]: 1.54; EC50 [13]: 0.025 µg/mL; maxOD [13]: 4.5; EC50 [14]: 0.035 µg/mL; maxOD [14]: 2.8; EC50 [15]: 0.037 µg/mL; maxOD [15]: 1.67; EC50 [16]: 0.043 µg/mL; maxOD [16]: 3.83
7 | #38 (antibody, V domains shown) VH: QVQLQQSGAELARPGASVKLSCKASGYTFSIHWMQWVKQRPGQGLEWIGAIYPGNGDTKYTQKFKGKATLTADKSSSTAYMQLSNLASEDSAVYYCATLYGNYEAYWGQGTLVTVSA VL: DIVLTQSPASLSASVGETVTITCGASENIYGALNWYQRKQGKSPQLLIYGTTNLADGMSSRFSGSGSGRQYSLKISSLHPDDVATYYCQNVLTTPPWTFGGGTKLEIK | 0.04 | 3.32 | 0.09 | 2.66 | 0.2 | 0.16 | 0.02 | 2.97 | – | – | – | – | – | – | – | – | –
8 | #39 (antibody, V domains shown) VH: QVQLQQSGAELVRPGTSVKVSCKASGYAFTDYLIEWVKQRPGQGLEWIGGINPGSGSTNYNEKFKGKAILTADKSSSTAYMQLSSLTSDDSAVYFCARLDGNYVGYWGQGTTLTVSS VL: DILLTQSPASLSASVGETVTITCRASGNIHNYLAWYQQKQGKSPQLLVYHAKTLADGVPSRFSGSGSGTQYSLKINSLQPEDFGSYYCQHFWSTPWTFGGGTKLEIK | 0.36 | 1.01 | 0.34 | 0.11 | 0.52 | 0.03 | 0.1 | 2.86 | – | – | – | – | – | – | – | – | –
9 | 13A9 (antibody, human IgG1, kappa, V domains shown) VH: QVQLQQSGAELVRPGTSVKVSCKASGYAFTNYLIEWVKQRPGQGLEWIGAINPGSGATNYNEKFKDKARLTADKSSNTAYLQFSSLTSDDSAVYFCARFLGNYFDNWGQGATLTVSS VL: DIQMTQSPASLSASVGETVTITCRASGNIHSYLAWYQQKQGKSPQLLVYYAETLADGVPSRFSGRGSGTQYSLKINSLQPEDFGSYFCQQFWTTPYTFGGGTKVEIKR | 0.14 | 3.1 | 0.33 | 0.89 | 0.22 | 0.15 | 0.04 | 2.91 | 0.176 | 1.42 | 0.47 | 0.35 | 0.191 | 0.48 | 0.06 | 0.083 | EC50 [8]: 0.088 µg/mL; Max OD450 [8]: 1.28
10 | 3F9 (antibody, human IgG1, kappa, V domains shown) VH: QVQLVESGGGLVKPGGSLRLSCAASGFTFSNYAMSWIRQAPGKGLEWVSYISPGGDYIYYADSVKGRFTISRDNAKNSLYLQMNSLRAEDTAVYYCTTDRRHYGSYAMDYWGQGTLVTVSS VL: DIVMTQSPLSLPVTPGEPASISCRSSKSLLHSNLNTYLYWFLQKPGQSPQILIYRMSNLASGVPDRFSGSGSGTAFTLKISRVEAEDVGVYYCMQHLEYPFTFGPGTKLEIKR | 0.09 | 3.3 | 0.14 | 2.49 | 0.22 | 0.34 | – | – | 0.107 | 1.82 | 0.129 | 1.83 | 0.105 | 1.15 | 0.167 | 0.071 | EC50 [13]: 0.131 µg/mL; maxOD [13]: 3.96; EC50 [14]: 0.255 µg/mL; maxOD [14]: 2.7; EC50 [15]: 0.134 µg/mL; maxOD [15]: 1.51
